Reference: the supplement of paper PMC10567573

B1: TOR1AIP2 (parent)
chain: AGQEGEDTLRRRLLAPEAGSHPQQ
B2: ZNF649 (parent)
chain: MTKAQESLTLEDVAVDFTWEEWQF

Variants of: B1
Experiment: protein stability index of a GFP-peptide fusion (GPS, HEK-293T) (PSI 1-6); higher = more stable
Details: c terminus: a fixed tail appended
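Note: lentivirally expressed fusions sorted by FACS into six bins by GFP to DsRed ratio, PSI derived from sequencing read proportions per bin multiplied by bin number.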

Q: For AGQEGEDTLRRRLLAPEAGSHPRQ [Q23R], which protein stability index is on record?
A: Its protein stability index is 2.54.

Q: For AGQEGEDTLRRRLLAPEAGSHPGQ [Q23G], which protein stability index is on record?
A: The protein stability index was 1.78.

Q: With AGQEGEDTLRRRLLAPEAGSHPHQ [Q23H] as the variant, how does the protein stability index read?
A: The protein stability index was 2.01.

Q: Which protein stability index does the source give for AGQEGEDTLRRRLLAPEAGSHPIQ [Q23I] here?
A: The protein stability index was 1.73.

Q: For AGQEGEDTLRRRLLAPEAGSHPNQ [Q23N], which protein stability index is on record?
A: Its protein stability index is 2.17.

Q: With AGQEGEDTLRRRLLAPEAGSHPVQ [Q23V] as the variant, how does the protein stability index read?
A: Its protein stability index is 2.69.

Q: For AGQEGEDTLRRRLLAPEAGSHPEQ [Q23E], which protein stability index is on record?
A: The protein stability index was 2.18.

Q: Which protein stability index does the source give for AGQEGEDTLRRRLLAPEAGSHPSQ [Q23S] here?
A: The protein stability index was 1.85.

Q: With AGQEGEDTLRRRLLAPEAGSHPCQ [Q23C] as the variant, how does the protein stability index read?
A: Its protein stability index is 2.54.

Q: For AGQEGEDTLRRRLLAPEAGSHPDQ [Q23D], which protein stability index is on record?
A: The protein stability index was 2.75.

Q: Which protein stability index does the source give for AGQEGEDTLRRRLLAPEAGSHPTQ [Q23T] here?
A: The protein stability index was 1.61.

Q: With AGQEGEDTLRRRLLAPEAGSHPMQ [Q23M] as the variant, how does the protein stability index read?
A: The protein stability index was 2.24.

Q: For AGQEGEDTLRRRLLAPEAGSHPKQ [Q23K], which protein stability index is on record?
A: Its protein stability index is 2.74.

Q: With AGQEGEDTLRRRLLAPEAGSHPAQ [Q23A] as the variant, how does the protein stability index read?
A: The protein stability index was 2.36.

Q: For AGQEGEDTLRRRLLAPEAGSHPPQ [Q23P], which protein stability index is on record?
A: The protein stability index was 3.1.

Q: With AGQEGEDTLRRRLLAPEAGSHPYQ [Q23Y] as the variant, how does the protein stability index read?
A: The protein stability index was 2.01.

Q: With AGQEGEDTLRRRLLAPEAGSHPLQ [Q23L] as the variant, how does the protein stability index read?
A: Its protein stability index is 2.45.

Q: With AGQEGEDTLRRRLLAPEAGSHPWQ [Q23W] as the variant, how does the protein stability index read?
A: Its protein stability index is 1.81.

Q: For AGQEGEDTLRRRLLAPEAGSHPQV [Q24V], which protein stability index is on record?
A: The protein stability index was 2.58.

Q: Which protein stability index does the source give for AGQEGEDTLRRRLLAPEAGSHPQN [Q24N] here?
A: Its protein stability index is 2.25.

Q: With AGQEGEDTLRRRLLAPEAGSHPQI [Q24I] as the variant, how does the protein stability index read?
A: The protein stability index was 2.16.

Q: With AGQEGEDTLRRRLLAPEAGSHPQW [Q24W] as the variant, how does the protein stability index read?
A: Its protein stability index is 2.17.

Q: For AGQEGEDTLRRRLLAPEAGSHPQC [Q24C], which protein stability index is on record?
A: The protein stability index was 1.85.

Q: Which protein stability index does the source give for AGQEGEDTLRRRLLAPEAGSHPQL [Q24L] here?
A: Its protein stability index is 1.79.

Q: For AGQEGEDTLRRRLLAPEAGSHPQR [Q24R], which protein stability index is on record?
A: Its protein stability index is 2.05.

Q: With AGQEGEDTLRRRLLAPEAGSHPQT [Q24T] as the variant, how does the protein stability index read?
A: Its protein stability index is 2.22.

Q: Which protein stability index does the source give for AGQEGEDTLRRRLLAPEAGSHPQS [Q24S] here?
A: The protein stability index was 2.4.

Q: With AGQEGEDTLRRRLLAPEAGSHPQH [Q24H] as the variant, how does the protein stability index read?
A: The protein stability index was 1.7.

Q: With AGQEGEDTLRRRLLAPEAGSHPQD [Q24D] as the variant, how does the protein stability index read?
A: The protein stability index was 2.38.

Q: With AGQEGEDTLRRRLLAPEAGSHPQF [Q24F] as the variant, how does the protein stability index read?
A: Its protein stability index is 2.37.

Q: For AGQEGEDTLRRRLLAPEAGSHPQE [Q24E], which protein stability index is on record?
A: The protein stability index was 2.52.

Q: Which protein stability index does the source give for AGQEGEDTLRRRLLAPEAGSHPQP [Q24P] here?
A: Its protein stability index is 2.41.

Q: With AGQEGEDTLRRRLLAPEAGSHPQM [Q24M] as the variant, how does the protein stability index read?
A: Its protein stability index is 2.81.

Q: With AGQEGEDTLRRRLLAPEAGSHPQY [Q24Y] as the variant, how does the protein stability index read?
A: Its protein stability index is 2.46.

Q: For AGQEGEDTLRRRLLAPEAGSQPQQ [H21Q], which protein stability index is on record?
A: Its protein stability index is 2.7.

Q: Which protein stability index does the source give for AGQEGEDTLRRRLLAPEAGSKPQQ [H21K] here?
A: Its protein stability index is 2.58.

Q: With AGQEGEDTLRRRLLAPEAGSMPQQ [H21M] as the variant, how does the protein stability index read?
A: Its protein stability index is 1.88.

Q: For AGQEGEDTLRRRLLAPEAGSYPQQ [H21Y], which protein stability index is on record?
A: The protein stability index was 1.85.

Q: Which protein stability index does the source give for AGQEGEDTLRRRLLAPEAGSVPQQ [H21V] here?
A: Its protein stability index is 2.1.

Q: Which protein stability index does the source give for AGQEGEDTLRRRLLAPEAGSGPQQ [H21G] here?
A: The protein stability index was 2.47.

Q: With AGQEGEDTLRRRLLAPEAGSIPQQ [H21I] as the variant, how does the protein stability index read?
A: The protein stability index was 2.96.

Q: With AGQEGEDTLRRRLLAPEAGSTPQQ [H21T] as the variant, how does the protein stability index read?
A: The protein stability index was 2.26.

Q: With AGQEGEDTLRRRLLAPEAGSNPQQ [H21N] as the variant, how does the protein stability index read?
A: The protein stability index was 2.69.

Q: Which protein stability index does the source give for AGQEGEDTLRRRLLAPEAGSFPQQ [H21F] here?
A: Its protein stability index is 2.02.

Q: With AGQEGEDTLRRRLLAPEAGSRPQQ [H21R] as the variant, how does the protein stability index read?
A: Its protein stability index is 2.14.

Q: For AGQEGEDTLRRRLLAPEAGSSPQQ [H21S], which protein stability index is on record?
A: The protein stability index was 2.76.

Q: For AGQEGEDTLRRRLLAPEAGSWPQQ [H21W], which protein stability index is on record?
A: Its protein stability index is 2.6.

Q: For AGQEGEDTLRRRLLAPEAGSPPQQ [H21P], which protein stability index is on record?
A: The protein stability index was 2.82.

Q: For AGQEGEDTLRRRLLAPEAGSLPQQ [H21L], which protein stability index is on record?
A: The protein stability index was 2.27.

Q: Which protein stability index does the source give for AGQEGEDTLRRRLLAPEAGSHHQQ [P22H] here?
A: Its protein stability index is 1.65.

Q: For AGQEGEDTLRRRLLAPEAGSHKQQ [P22K], which protein stability index is on record?
A: Its protein stability index is 2.44.

Q: For AGQEGEDTLRRRLLAPEAGSHMQQ [P22M], which protein stability index is on record?
A: The protein stability index was 2.67.

Q: With AGQEGEDTLRRRLLAPEAGSHWQQ [P22W] as the variant, how does the protein stability index read?
A: The protein stability index was 1.94.

Q: For AGQEGEDTLRRRLLAPEAGSHAQQ [P22A], which protein stability index is on record?
A: The protein stability index was 2.58.

Q: With AGQEGEDTLRRRLLAPEAGSHDQQ [P22D] as the variant, how does the protein stability index read?
A: Its protein stability index is 2.6.

Q: Which protein stability index does the source give for AGQEGEDTLRRRLLAPEAGSHNQQ [P22N] here?
A: The protein stability index was 3.24.

Q: For AGQEGEDTLRRRLLAPEAGSHVQQ [P22V], which protein stability index is on record?
A: The protein stability index was 2.4.

Q: For AGQEGEDTLRRRLLAPEAGSHFQQ [P22F], which protein stability index is on record?
A: The protein stability index was 2.31.

Q: For AGQEGEDTLRRRLLAPEAGSHTQQ [P22T], which protein stability index is on record?
A: Its protein stability index is 1.87.

Q: For AGQEGEDTLRRRLLAPEAGSHRQQ [P22R], which protein stability index is on record?
A: The protein stability index was 2.04.

Q: Which protein stability index does the source give for AGQEGEDTLRRRLLAPEAGSHYQQ [P22Y] here?
A: Its protein stability index is 1.52.

Q: For AGQEGEDTLRRRLLAPEAGSHQQQ [P22Q], which protein stability index is on record?
A: The protein stability index was 2.34.

Q: For AGQEGEDTLRRRLLAPEAGSHIQQ [P22I], which protein stability index is on record?
A: The protein stability index was 2.56.

Q: With AGQEGEDTLRRRLLAPEAGSHSQQ [P22S] as the variant, how does the protein stability index read?
A: The protein stability index was 1.81.

Q: With AGQEGEDTLRRRLLAPEAGSHLQQ [P22L] as the variant, how does the protein stability index read?
A: The protein stability index was 2.14.

Q: For AGQEGEDTLRRRLLAPEAGSHCQQ [P22C], which protein stability index is on record?
A: Its protein stability index is 2.43.

Q: Which protein stability index does the source give for AGQEGEDTLRRRLLAPEAGSHEQQ [P22E] here?
A: Its protein stability index is 2.66.

Q: With AGQEGEDTLRRRLLAPEAGSHGQQ [P22G] as the variant, how does the protein stability index read?
A: The protein stability index was 2.44.

Variants of: B2
Experiment: as above
Details: c terminus: a fixed tail appended

Q: Which protein stability index does the source give for MTKAEESLTLEDVAVDFTWEEWQF [Q5E] here?
A: The protein stability index was 3.35.

Q: With MTKAMESLTLEDVAVDFTWEEWQF [Q5M] as the variant, how does the protein stability index read?
A: Its protein stability index is 2.92.

Q: With MTKAYESLTLEDVAVDFTWEEWQF [Q5Y] as the variant, how does the protein stability index read?
A: Its protein stability index is 2.32.

Q: With MTKAPESLTLEDVAVDFTWEEWQF [Q5P] as the variant, how does the protein stability index read?
A: Its protein stability index is 3.04.

Q: Which protein stability index does the source give for MTKAFESLTLEDVAVDFTWEEWQF [Q5F] here?
A: Its protein stability index is 3.12.

Q: For MTKAWESLTLEDVAVDFTWEEWQF [Q5W], which protein stability index is on record?
A: Its protein stability index is 1.49.

Q: For MTKARESLTLEDVAVDFTWEEWQF [Q5R], which protein stability index is on record?
A: Its protein stability index is 2.46.

Q: For MTKACESLTLEDVAVDFTWEEWQF [Q5C], which protein stability index is on record?
A: Its protein stability index is 2.78.

Q: With MTKAKESLTLEDVAVDFTWEEWQF [Q5K] as the variant, how does the protein stability index read?
A: The protein stability index was 2.83.

Q: For MTKALESLTLEDVAVDFTWEEWQF [Q5L], which protein stability index is on record?
A: The protein stability index was 2.97.

Q: Which protein stability index does the source give for MTKANESLTLEDVAVDFTWEEWQF [Q5N] here?
A: Its protein stability index is 3.33.

Q: For MTKATESLTLEDVAVDFTWEEWQF [Q5T], which protein stability index is on record?
A: Its protein stability index is 3.04.

Q: With MTKAVESLTLEDVAVDFTWEEWQF [Q5V] as the variant, how does the protein stability index read?
A: The protein stability index was 3.37.

Q: Which protein stability index does the source give for MTKAGESLTLEDVAVDFTWEEWQF [Q5G] here?
A: The protein stability index was 2.84.

Q: With MTKADESLTLEDVAVDFTWEEWQF [Q5D] as the variant, how does the protein stability index read?
A: The protein stability index was 3.4.

Q: Which protein stability index does the source give for MTKAAESLTLEDVAVDFTWEEWQF [Q5A] here?
A: The protein stability index was 3.02.

Q: With MTKAHESLTLEDVAVDFTWEEWQF [Q5H] as the variant, how does the protein stability index read?
A: Its protein stability index is 3.2.

Q: With MTKAIESLTLEDVAVDFTWEEWQF [Q5I] as the variant, how does the protein stability index read?
A: Its protein stability index is 3.02.

Q: With MTKASESLTLEDVAVDFTWEEWQF [Q5S] as the variant, how does the protein stability index read?
A: Its protein stability index is 3.96.

Q: With MGKAQESLTLEDVAVDFTWEEWQF [T2G] as the variant, how does the protein stability index read?
A: The protein stability index was 3.25.

Q: Which protein stability index does the source give for MWKAQESLTLEDVAVDFTWEEWQF [T2W] here?
A: Its protein stability index is 2.36.

Q: Which protein stability index does the source give for MCKAQESLTLEDVAVDFTWEEWQF [T2C] here?
A: Its protein stability index is 2.57.

Q: Which protein stability index does the source give for MAKAQESLTLEDVAVDFTWEEWQF [T2A] here?
A: The protein stability index was 3.09.

Q: Which protein stability index does the source give for MVKAQESLTLEDVAVDFTWEEWQF [T2V] here?
A: Its protein stability index is 2.64.

Q: With MEKAQESLTLEDVAVDFTWEEWQF [T2E] as the variant, how does the protein stability index read?
A: The protein stability index was 3.94.

Q: For MDKAQESLTLEDVAVDFTWEEWQF [T2D], which protein stability index is on record?
A: Its protein stability index is 3.5.
